For one substance, USP7 diffusely distributed within the nucleus, 48 h p.i. (immunofluorescence) (% of the UBM2-infected cells), partial relocalization of USP7 into ring-like or rosette-shaped replication centers, 48 h p.i. (immunofluorescence) (% of the UBM2-infected cells) and relocalization of USP7 into viral replication centers (immunofluorescence) (% of the infected cells) results are on record in patent publication US20230302123A1.

The experiment deals with ubiquitin-specific protease 7 (USP7/HAUSP), endogenous in human H1299 and HCT116 cells (human) (UniProt Q93009). In words: cell-based or functional assay.
Chain of UniProt Q93009 (Q93009 whole entry): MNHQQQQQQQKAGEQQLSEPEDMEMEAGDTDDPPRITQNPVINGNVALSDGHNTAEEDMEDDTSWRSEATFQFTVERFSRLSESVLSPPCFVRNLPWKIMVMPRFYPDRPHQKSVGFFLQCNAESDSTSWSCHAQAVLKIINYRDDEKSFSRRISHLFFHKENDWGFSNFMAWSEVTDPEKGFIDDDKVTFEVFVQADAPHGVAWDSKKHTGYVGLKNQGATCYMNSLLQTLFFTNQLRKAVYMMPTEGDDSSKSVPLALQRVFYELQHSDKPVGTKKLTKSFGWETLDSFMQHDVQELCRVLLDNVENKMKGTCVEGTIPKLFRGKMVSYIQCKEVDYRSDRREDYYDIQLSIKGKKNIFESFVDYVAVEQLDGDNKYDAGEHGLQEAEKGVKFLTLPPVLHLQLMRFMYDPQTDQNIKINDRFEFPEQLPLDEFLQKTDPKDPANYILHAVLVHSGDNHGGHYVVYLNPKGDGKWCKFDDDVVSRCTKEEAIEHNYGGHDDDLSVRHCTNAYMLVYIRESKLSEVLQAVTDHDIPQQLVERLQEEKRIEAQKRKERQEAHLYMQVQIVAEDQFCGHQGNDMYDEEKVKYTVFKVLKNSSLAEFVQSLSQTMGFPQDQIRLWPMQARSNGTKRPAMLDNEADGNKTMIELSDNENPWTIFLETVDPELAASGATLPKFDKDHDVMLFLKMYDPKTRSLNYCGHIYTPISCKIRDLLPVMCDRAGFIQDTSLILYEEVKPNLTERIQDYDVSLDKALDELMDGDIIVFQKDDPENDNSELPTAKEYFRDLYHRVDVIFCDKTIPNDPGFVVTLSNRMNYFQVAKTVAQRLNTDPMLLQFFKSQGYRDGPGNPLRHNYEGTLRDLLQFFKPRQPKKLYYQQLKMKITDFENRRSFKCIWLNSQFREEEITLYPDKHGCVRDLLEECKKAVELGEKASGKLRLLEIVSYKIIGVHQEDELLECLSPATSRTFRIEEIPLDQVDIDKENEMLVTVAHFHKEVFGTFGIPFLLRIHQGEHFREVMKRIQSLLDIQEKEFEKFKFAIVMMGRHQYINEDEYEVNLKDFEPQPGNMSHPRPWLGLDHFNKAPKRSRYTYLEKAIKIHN

The substance “DBP-S76A of the virus mutant UBM2 (H5pm4250) (from UniProt P03265 1-529)” registered a USP7 diffusely distributed within the nucleus, 48 h p.i. (immunofluorescence) (% of the UBM2-infected cells) of 45; a partial relocalization of USP7 into ring-like or rosette-shaped replication centers, 48 h p.i. (immunofluorescence) (% of the UBM2-infected cells) of 55; a relocalization of USP7 into viral replication centers (immunofluorescence) (% of the infected cells) of 100.
